From paper PMC11578894

Target: His6–Gp54^Bas11 (phage Bas11)
Experiment: ITC; CapRel^SJ46 in the syringe at 200 µM titrated into Gp54^Bas11 in the cell at 10 µM (Gp54^Bas11(G24D) was used at 260 µM); 30 °C; 50 mM HEPES pH 7.5, 500 mM KCl, 500 mM NaCl, 2 mM MgCl2, 1 mM TCEP

Kd: 800 nM
stoichiometry N: 1
Substance: His6–MBP–CapRel^SJ46 (natural protein)
